In paper PMC4802922, “Conserved motif VIII of murine DNA methyltransferase Dnmt3a is essential for methylation activity”:

Tests used:
Dnmt3a-CD R200A = Dnmt3a-CD R200A (Mus musculus, UniProt O88508 608-908, R786A); assay: fluorescence polarization; Kd1; 0.1 mM AdoHcy; Fluorescence polarization: 10 nM duplex, 0.1 mM AdoHcy, Dnmt3a reaction buffer (composition not given), 25 °C; enzyme up to 600-800 nM; settings: protein: recombinant; tags: His6; chain copies: 2; label: 5'-FAM on strand 1 (hexamethylene linker); blunt
Dnmt3a-CD R200K = Dnmt3a-CD R200K (Mus musculus, UniProt O88508 608-908, R786K); assay: as above; settings: protein: recombinant; tags: His6; chain copies: 2; label: 5'-FAM on strand 1 (hexamethylene linker); blunt
Dnmt3a-CD R200E = Dnmt3a-CD R200E (Mus musculus, UniProt O88508 608-908, R786E); assay: as above; settings: protein: recombinant; tags: His6; chain copies: 2; label: 5'-FAM on strand 1 (hexamethylene linker); blunt
Dnmt3a-CD wt = Dnmt3a-CD wt (Mus musculus, UniProt O88508 608-908); assay: fluorescence polarization; Kd1 (first complex); 0.1 mM AdoHcy; Fluorescence polarization: 10 nM duplex, 0.1 mM AdoHcy, Dnmt3a reaction buffer (composition not given), 25 °C; enzyme up to 600-800 nM; settings: protein: recombinant; tags: His6 (N-terminal in Methods, C-terminal in Results); chain copies: 2; label: 5'-FAM on strand 1 (hexamethylene linker); blunt
Dnmt3a-CD wt, sequence (O88508 608-908): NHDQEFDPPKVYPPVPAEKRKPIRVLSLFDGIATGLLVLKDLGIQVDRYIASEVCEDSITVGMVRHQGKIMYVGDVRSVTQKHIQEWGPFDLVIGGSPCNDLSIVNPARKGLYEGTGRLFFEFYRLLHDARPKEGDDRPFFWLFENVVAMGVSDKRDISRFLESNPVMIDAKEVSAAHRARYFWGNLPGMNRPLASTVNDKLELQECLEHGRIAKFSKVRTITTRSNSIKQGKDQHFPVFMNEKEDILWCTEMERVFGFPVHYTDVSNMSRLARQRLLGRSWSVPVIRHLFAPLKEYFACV

Dnmt3a-CD R200K, sequence (O88508 608-908 R786K): as the sequence (O88508 608-908) above, with R179K counted along it
Dnmt3a-CD R200A, sequence (O88508 608-908 R786A): as the sequence (O88508 608-908) above, with R179A counted along it
Dnmt3a-CD R200E, sequence (O88508 608-908 R786E): as the sequence (O88508 608-908) above, with R179E counted along it

B1: fGCGC/CGCG (dsDNA)
DNA 1: CTGAATACTACTTGCGCTCTCTAACCTGAT
DNA 2: ATCAGGTTAGAGAGCGCAAGTAGTATTCAG
- Kd (Dnmt3a-CD R200A): 79 ± 17 nM
- Kd (Dnmt3a-CD R200K): 55 ± 14 nM
- Kd (Dnmt3a-CD R200E): 159 ± 37 nM
- Kd (Dnmt3a-CD wt): 73 ± 17 nM
